Data as given in PMC3212078, “Atomic Force Microscopy Study of Protein–Protein Interactions in the Cytochrome CYP11A1 (P450scc)-Containing Steroid Hydroxylase System” (Nanoscale Research Letters, 2010).

Legend:
[1] = molecular target: T1, cytochrome CYP11A1 (P450scc) (bovine, UniProt P00189 40-520); assay: SPR; Biacore 3000; about 400 RU Ad coupled by EDC/NHS to a CM5 chip; oligomeric (non-monomerized) CYP11A1 injected at 1-100 nM; 50 mM potassium phosphate pH 7.4 with 1% Emulgen 913; 1:1 Langmuir model; conditions: both partners purified
T1 construct: The same protein was used either untreated (oligomeric, non-monomerized) or after incubation with 4-12% Emulgen 913 (monomerized); the assays tell the two states apart; also called CYP11A1mon; monomerized CYP11A1; source: isolated from bovine adrenal glands
T1 sequence (looked up): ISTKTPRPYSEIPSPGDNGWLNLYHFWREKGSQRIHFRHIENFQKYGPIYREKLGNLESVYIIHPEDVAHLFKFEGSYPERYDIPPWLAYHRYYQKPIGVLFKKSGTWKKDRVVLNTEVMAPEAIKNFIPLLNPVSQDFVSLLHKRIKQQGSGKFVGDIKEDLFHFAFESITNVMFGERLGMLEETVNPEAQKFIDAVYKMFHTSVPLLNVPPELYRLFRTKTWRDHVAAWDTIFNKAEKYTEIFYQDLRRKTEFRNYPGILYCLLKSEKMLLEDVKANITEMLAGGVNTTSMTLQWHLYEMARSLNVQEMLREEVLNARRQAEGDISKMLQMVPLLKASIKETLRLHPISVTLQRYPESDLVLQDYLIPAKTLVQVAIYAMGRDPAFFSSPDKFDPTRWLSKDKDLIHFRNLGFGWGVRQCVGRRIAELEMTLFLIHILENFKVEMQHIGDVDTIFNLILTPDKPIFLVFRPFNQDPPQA

[2] = molecular target: T1, cytochrome CYP11A1 (P450scc); assay: SPR; Biacore 3000; about 400 RU Ad coupled by EDC/NHS to a CM5 chip; monomeric (Emulgen 913-monomerized) CYP11A1 injected at 1-100 nM; 50 mM potassium phosphate pH 7.4 with 1% Emulgen 913; 1:1 Langmuir model; conditions: both partners purified

B1: adrenodoxin (natural protein, UniProt P00257 59-186, looked up)
chain: SSSEDKITVHFINRDGETLTTKGKIGDSLLDVVVQNNLDIDGFGACEGTLACSTCHLIFEQHIFEKLEAITDEENDMLDLAYGLTDRSRLGCQICLTKAMDNMTVRVPDAVSDARESIDMGMNSSKIE
notes: adrenodoxin (Ad), recombinant; source: E. coli BL21DE3, purified after sonification
[1]
  Kd: 210 ± 20 nM
  koff: 0.09 ± 0.009 s⁻¹
  kon: 420000 M⁻¹ s⁻¹
[2]
  Kd: 170 ± 15 nM
  koff: 0.05 ± 0.005 s⁻¹
  kon: 290000 M⁻¹ s⁻¹
